The target in assay [1] is IL-2/IL-15 receptor on primary mouse splenocytes (mouse). Put plainly: cell-based or functional assay.
Assay [2] has as its target T1, Recombinant mouse uPAR-Fc (R&D Systems, Cat. No. 531-PA-100) (mouse, UniProt P35456 24-297, limits assumed).
T1 construct: not shown: Fc of the bought fusion (captured with the human antibody capture kit); not described
T1 sequence (looked up): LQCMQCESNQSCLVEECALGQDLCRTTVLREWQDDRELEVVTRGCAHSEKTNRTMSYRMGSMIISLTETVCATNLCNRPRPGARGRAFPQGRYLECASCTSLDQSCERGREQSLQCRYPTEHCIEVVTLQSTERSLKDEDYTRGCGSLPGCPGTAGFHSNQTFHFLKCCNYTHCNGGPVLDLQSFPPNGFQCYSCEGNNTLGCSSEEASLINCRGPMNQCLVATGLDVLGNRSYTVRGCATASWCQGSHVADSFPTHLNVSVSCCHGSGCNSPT
Put plainly: SPR (Biacore), mouse uPAR-Fc captured on anti-human antibody chip. A general note: SPR reads the build-up and loss of mass on a sensor chip optically.

Assay [3] deals with T2, mouse uPAR on cells (mouse, UniProt P35456 24-298).
T2 construct: whole, on cells; also called Ms-uPAR; mouse uPAR (CD87)
T2 sequence (looked up): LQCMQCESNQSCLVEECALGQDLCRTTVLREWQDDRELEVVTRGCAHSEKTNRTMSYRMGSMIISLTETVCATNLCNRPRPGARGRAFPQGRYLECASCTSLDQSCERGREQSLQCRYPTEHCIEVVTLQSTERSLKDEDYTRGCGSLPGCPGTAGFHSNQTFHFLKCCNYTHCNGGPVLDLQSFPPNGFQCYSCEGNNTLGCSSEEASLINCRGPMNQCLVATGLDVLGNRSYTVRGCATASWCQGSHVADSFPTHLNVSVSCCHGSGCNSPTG
As to the kind of experiment: flow cytometry on MC38 cells (express mouse uPAR), anti-His detection. In general terms: In flow cytometry, cells or beads pass a laser one at a time.

Assay [4] concerns the target Human uPAR DII-DIII domain HisAvi Tag (human, biotinylated (site not stated)). Put plainly: BLI (Octet), biotinylated domain on SA sensor, antibody 200 nM. Background: Biolayer interferometry detects binding as a change in optical thickness at a sensor tip.
Assay [5] concerns the target T3, histidine-tagged human uPAR (Sino#10925-H08H) (human, UniProt Q03405 23-303).
T3 construct: also called uPAR-His
As to the kind of experiment: BLI (Octet), uPAR on sensor, antibody in solution (avidity).

Assay [6] has as its target T3, histidine-tagged human uPAR …. Put plainly: BLI (Octet), antibody on anti-mouse Fc sensor, uPAR in solution.
Assay [7] deals with T4, biotinylated human uPAR (human, UniProt Q03405 23-303, limits assumed, biotinylated (site not stated)). As to the kind of experiment: BLI (Octet) on biotinylated human uPAR; row 'None': no first antibody.
For assay [8], the target named is T5, human uPAR expressed on HEK293 cells (human, UniProt Q03405 23-305).
T5 construct: whole, on cells; also called Hu-uPAR
As to the kind of experiment: flow cytometry, HEK293 cells expressing human uPAR, 100 nM uPA present.

Assay [9] has as its target T2, mouse uPAR on cells. As to the kind of experiment: flow cytometry, HEK293 cells expressing mouse uPAR, 100 nM uPA present.
Assay [10] addresses T4, biotinylated human uPAR. Put plainly: BLI (Octet) competition on biotinylated human uPAR; competitor (first antibody): M1.
The target in assay [11] is T4, biotinylated human uPAR. As to the kind of experiment: BLI (Octet) competition on biotinylated human uPAR; competitor (first antibody): M5.
Assay [12] deals with T4, biotinylated human uPAR. As to the kind of experiment: BLI (Octet) competition on biotinylated human uPAR; competitor (first antibody): ATN-368 (ATN-658).

Bounds are passed on as bounds.

B1: His6:Mouse uPA-ATF:mouse IL-15Ra:cpIL-15 (other)
chain: HHHHHHGSVLGAPDESNCGCQNGGVCVSYKYFSRIRRCSCPRKFQGEHCEIDASKTCYHGNGDSYRGKANTDTKGRPCLAWNAPAVLQKPYNAHRPDAISLGLGKHNYCRNPDNQKRPWCYVQIGLRQFVQECMVHDCGGSGGTTCPPPVSIEHADIRVKNYSVNSRERYVCNSGFKRKAGTSTLIECVINKNTNVAHWTTPSLKCIRDGGSELEEKTFTEFLQSFIRIVQMFINGGGSNWIDVRYDLEKIESLIQSIHIDTTLYTDSDFHPSCKVTAMNCFLLELQVILHEYSNMTLNETVRNVLYLANSTLSSNKNVAESGCKEC
notes: also called 102
One may read the koff as a measure of how fast the partners let go of each other. As a reminder, the kon is the rate constant with which the complex forms. As a reminder, the EC50 is the concentration at which the effect is half-maximal. Higher therefore signals weaker potency. For B1, in assay [1], the “pSTAT5 EC50, mouse NK cells” value stood at 0.15 nM; the “pSTAT5 EC50, mouse Tregs” value was found to be 1.7 nM; the “pSTAT5 EC50, mouse memory CD8 T cells” value turned out to be 0.5 nM. Further, in assay [2], the Kd was 0.14 nM, the koff was found to be 0.0002 s⁻¹ and the kon came out at 1.5e+06 M⁻¹ s⁻¹. For the same molecule, in the assay with mouse uPAR on cells [3], the midpoint of the response, the EC50, lay at 0.41 nM.

B2: M5 (antibody, V domains shown)
VH: QVQLKESGPGLVAPSQSLSITCTVSGFSLTNYGVHWVRQPPGKDLEWLVVIWSDGGTTYNSALKSRLSISKDNSKSQVFLKMNSLQTDDTAMYYCARGGRSDLFAYWGQGTLVTVSA
VL: DVLMTQTPLSLPVSLGDQASISCRSSQSIVHSNGNTYLEWYLQKPGQSPKLLIYKVSNRFSGVPDRFSGSGSGTDFTLKISRVEAEDLGVYYCFQGSHVPYTFGGGTKLEIK
notes: Mouse hybridoma antibody; also called anti-uPAR antibody M5; parental M5
Turning to B2, in assay [4], the binding result is “binds”. In addition, the Kd in [5] is less than 0.001 nM; in assay [6] it was 33.1 nM. Further, the off-rate (koff) in [5] is less than 1e-07 s⁻¹; in [6], 0.000962 s⁻¹. Besides, the kon in assay [5] came out at 28300 M⁻¹ s⁻¹; in [6] it was 29100 M⁻¹ s⁻¹. Moreover, the “response in competition assay” value in the assay with biotinylated human uPAR [7] was 0.181; with biotinylated human uPAR [10], 0.161; with biotinylated human uPAR [11] it was -0.0173; with biotinylated human uPAR [12] it was 0.179. For the same molecule, the EC50 in assay [8] turned out to be 2.53 nM; with mouse uPAR on cells [9], 93.8 nM.

B3: M8 (antibody, V domains shown)
VH: QIQLVQSGPELKKPGETVKISCKASGNTFTDYGMNWVKQSPGKGLKWMGWINTNTGEPTYADDFKGRFAFSLETSASTAYLQINNLKNEDMATYFCAHYSFDYWGQGTTLTVSS
VL: DIQMTQSPASLSVSVGQTVTITCRTSENIYSNLAWYQQKPGKSPQLLVYAATNLADGVPSRFSGSGSGTQYSLKINSLQSEDFGSYYCQHFWGTPWTFGGGTKLEIK
notes: Mouse hybridoma antibody; also called anti-uPAR antibody M8; parental M8
Consider B3, for which the binding result in assay [4] is “binds”. The Kd in [5] was less than 0.001 nM; in [6] it was 1.08 nM. Also, the results for the off-rate (koff) in [5] and in assay [6] were less than 1e-07 s⁻¹ and 0.00063 s⁻¹, respectively. The kon in assay [5] worked out at 311000 M⁻¹ s⁻¹; in assay [6] it was 584000 M⁻¹ s⁻¹. Moreover, the “response in competition assay” value with biotinylated human uPAR [7] was 0.284; in the assay with biotinylated human uPAR [10], 0.302; with biotinylated human uPAR [11], 0.321; with biotinylated human uPAR [12] it was 0.31. Also, the EC50 worked out at 0.54 nM in [8] and 31.4 nM in the assay with mouse uPAR on cells [9].

B4: M43 (antibody, V domains shown)
VH: QVQLQQSGAELARPGASVNLSCKASGYTFTSYGISWVKQRTGQGLEWIGEIYPRSGNTYYNEKFKGKATLTADKSSRTAYMELRSLTSEDSAVYFCAGKDYGSTYADYWGQGTTLTVSS
VL: QIVLTQSPAIMSASPGEKVTMTCSASSSVSSRYLHWYQQKSGASPKLWIYGTSNLASGVPARFSGSGSGTSYSLTINSVEAEDAATYYCQQYHSDPLTFGAGTKLELK
notes: Mouse hybridoma antibody; also called anti-uPAR antibody M43; parental M43
On to B4, for which the binding result in assay [4] is “binds”. Moreover, the results for the Kd in assay [5] and in assay [6] were less than 0.001 nM and 7.47 nM, respectively. Besides, the koff in assay [5] is less than 1e-07 s⁻¹; in assay [6], 0.00883 s⁻¹. The figures for the on-rate constant (kon) in [5] and in assay [6] were 554000 M⁻¹ s⁻¹ and 1.18e+06 M⁻¹ s⁻¹, respectively. Moreover, the “response in competition assay” value in the assay with biotinylated human uPAR [7] was found to be 0.295; in the assay with biotinylated human uPAR [10], 0.312; with biotinylated human uPAR [11], 0.0175; with biotinylated human uPAR [12], 0.342. For the same molecule, the EC50 amounted to 0.3 nM in assay [8] and 2.83 nM with mouse uPAR on cells [9].

Values taken from patent US20220340678A1 (MURAL ONCOLOGY, published 2022).
